Among the data in article PMC12384571 are dH and Kd values, retold here.

Experiment [1] deals with Human FcRn (neonatal Fc receptor for IgG) (human) (UniProt P55899). Briefly: ITC; 15 uM FcRn in the sample cell, titrated with 100 uM mAb from the syringe (9 injections of 3 uL); 25 °C; 1 x PBS, pH 6.0; independent fit model. In general terms: Isothermal titration calorimetry measures the heat released or taken up as one component is titrated into another.
For the next experiment, the target named is hGHbp ECD (Homo sapiens) (UniProt P10912). Description: SPR. The following applies: cited from earlier work.
Sequence of UniProt P10912 (P10912 19-256): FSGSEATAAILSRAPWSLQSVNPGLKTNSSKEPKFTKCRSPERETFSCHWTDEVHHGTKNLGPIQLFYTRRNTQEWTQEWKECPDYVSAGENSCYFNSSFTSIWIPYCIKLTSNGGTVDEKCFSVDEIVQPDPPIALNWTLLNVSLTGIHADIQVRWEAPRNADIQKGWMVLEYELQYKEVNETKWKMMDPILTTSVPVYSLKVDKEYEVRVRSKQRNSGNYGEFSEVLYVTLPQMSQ

Sequence of UniProt P55899 (P55899 whole entry, looked up, the tested form may be a part): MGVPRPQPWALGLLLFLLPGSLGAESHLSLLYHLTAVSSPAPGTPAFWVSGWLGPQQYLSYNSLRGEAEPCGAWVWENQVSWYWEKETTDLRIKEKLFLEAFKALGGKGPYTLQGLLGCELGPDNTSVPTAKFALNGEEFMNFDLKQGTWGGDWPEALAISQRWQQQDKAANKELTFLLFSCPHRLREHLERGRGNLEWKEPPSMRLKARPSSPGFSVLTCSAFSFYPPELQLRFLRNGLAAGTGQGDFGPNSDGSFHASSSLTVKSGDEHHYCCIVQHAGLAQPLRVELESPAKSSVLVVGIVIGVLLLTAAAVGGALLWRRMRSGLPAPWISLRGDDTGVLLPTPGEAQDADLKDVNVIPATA

“YTE mutant IgG mAb (IgGA-YTE) (antibody)” returned a dH in experiment [1] of -12 kcal/mol.
Regarding hGHwt (from UniProt P01241), in the experiment with hGHbp ECD (Homo sapiens), the dissociation constant (Kd) (commonly the constant that tells how readily two partners part at equilibrium) is 1.2 nM.
In experiment [1], wildtype IgG mAb (IgGAwt) (antibody) had a dH of -5.5 kcal/mol.
